Measurements from patent US20260070984A1 (Boehringer Ingelheim, published 2026).
Read-outs that look alike come from different tables or passages of the source.

B1: Antibody C (antibody, human IgG4 S228P, kappa, V domains shown)
VH: EVQLVESGGGLVQPGGSLRLSCAASGFTFSDYYMSWVRQAPGKGLEWVAYISSGGGSSYYPDAVKGRFTISRDNAKQSLYLQMQSLRAEDTAVYYCARLPHYFAMDYWGQGTLVTVSS
VL: DIQMTQSPSSLSASVGDRVTITCQASQSISSDYLHWYQQKPGKAPKLLIYRTSNLETGVPSRFSGSGSGTDFTFTISSLQPEDIATYYCQQGTSLPRAFGQGTKLEIKR
notes: Humanized 723C2, human IgG4Pro/kappa; also called Ab C; 723C2-IgG4Pro-461-47 with IgK-462-07
B2: Chimeric 723C2 in IgG4Pro (antibody, V domains shown)
VH: EVQLVESGGGLVQPGGSLKLSCAASGFTFSDYYMSWVRQTPEKRLEWVAYISSGGGSSYYPDSVKGRFTISRDNTKNTLYLQMSSLKSEDTAVYYCARLPHYFAMDYWGQGTSVTVSS
VL: EIVLTQSPTTMAASPGEKITITCSASSSISSDYLHWYQQKPGFSPELLIYRTSNLASGVPARFSGSGSGTSYSLTIGSMEAEDVATYYCQQGTSLPRAFGGGTKLEIKR
B3: antibody 723C2 in human IgG4Pro backbone without the DC to DY mutation in H-CDR3 (antibody, V domains shown)
VH: EVQLVESGGGLVQPGGSLKLSCAASGFTFSDYYMSWVRQTPEKRLEWVAYISSGGGSSYYPDSVKGRFTISRDNTKNTLYLQMSSLKSEDTAVYYCARLPHYFAMDCWGQGTSVTVSS
VL: EIVLTQSPTTMAASPGEKITITCSASSSISSDYLHWYQQKPGFSPELLIYRTSNLASGVPARFSGSGSGTSYSLTIGSMEAEDVATYYCQQGTSLPRAFGGGTKLEIK
notes: Mouse 723C2 variable domains (H-CDR3 ending DC) in human IgG4Pro backbone; also called 723C2-4P
B4: PD1AB-6-4P (antibody, V domains shown)
VH: EVQLVQSGAEVKKPGATVKISCKASGFNIKDTYMHWVQQAPGKGLEWMGRIDPANGDRKYDPKFQGRVTITADTSTDTAYMELSSLRSEDTAVYYCARSGPVYYYGSSYVMDYWGQGTTVTVSS
VL: DIVMTQSPDSLAVSLGERATINCKSGQSVLYSSNQKNFLAWYQQKPGQPPKLLIYWASTRESGVPDRFSGSGSGTDFTLTISSLQAEDVAVYYCHQYLYSWTFGQGTKLEIK

Assays:
recombinant human PD-1 [1] = biological target: T1, recombinant human PD-1 (human, UniProt Q15116 25-167, limits assumed); experiment: SPR, ProteOn XPR36, 1:1 binding model
T1 construct: Soluble recombinant protein used in SPR; also called PDCD1; purified recombinant human PD-1
Protocol: Antibody PD1AB-6-4P (antibody in IgG4Pro backbone disclosed in WO2017/058859 to Celgene) was also tested.

[2] = biological target: T2, human PD-1 expressed on cells (human, UniProt Q15116 25-288); experiment: cell-based or functional assay
[3] = biological target: T2, human PD-1 expressed on cells; experiment: CHO-PD1-PDL1 DELFIA Eu TRF assay: enhancement of biotin labeled PD-L1 binding to CHO cells expressing PD-1, antibody titrated
Protocol: (§1) 10,000 cells were plated and incubated overnight at 37° C.±5% CO2 incubator (humidified incubator). […] Plates were washed twice with 50 μl of 1× TRF Wash Buffer. 20 μL of Eu-Streptavidin reagent was added to the assay plate, and incubated at room temperature for one hour. Enhancement Solution was added and incubated for 30 minutes at RT.

[4] = biological target: T2, human PD-1 expressed on cells; experiment: flow cytometry, AlexaFluor 647 labeled antibody on Jurkat cells expressing human PD-1
Protocol: Selectivity of anti-PD-1 antibody to human PD-1 protein in a cell-based assay was evaluated by flow cytometry. […] As a control, parental and PD-1 expressing Jurkat cells were incubated with anti-TNP isotype control antibodies. Following incubation, the cells were washed to remove non-bound antibody, fixed in PFA, and then washed in staining buffer. Binding of the antibody to the Jurkat cells was evaluated by flow cytometry. Unstained cells were also evaluated by flow cytometry as a negative control.

[5] = biological target: T2, human PD-1 expressed on cells; experiment: cell-based or functional assay; remark: listed apart in the source
[6] = biological target: T2, human PD-1 expressed on cells; experiment: cell-based or functional assay; remark: listed apart in the source
[7] = biological target: T2, human PD-1 expressed on cells; experiment: cell-based or functional assay; remark: listed apart in the source
[8] = biological target: T2, human PD-1 expressed on cells; experiment: cell-based or functional assay; remark: listed apart in the source
cynomologous PD-1 [9] = biological target: T3, cynomologous PD-1 (cynomolgus monkey, UniProt B0LAJ3 25-170); experiment: SPR, ProteOn XPR36, 1:1 binding model
T3 construct: Used in SPR; also called cynomolgus PD-1; recombinant cynomologus PD-1
Protocol: C) Affinity and kinetic data for the anti-PD-1 antibodies binding to cynomologous PD-1 were measured on the ProteOn™ XPR36 surface plasmon resonance optical biosensor, and globally fit to a 1:1 binding model (Table 11).

[10] = biological target: T2, human PD-1 expressed on cells; experiment: cell-based or functional assay; remark: listed apart in the source
recombinant human PD-1 [11] = biological target: T1, recombinant human PD-1; experiment: SPR, ProteOn XPR36
Protocol: Kinetics and binding affinities were measured using the ProteOn™ XPR36 (Biorad, Hercules, CA) surface plasmon resonance optical biosensor using material generated from transient transfection following single column purification.

[12] = biological target: T2, human PD-1 expressed on cells; experiment: DELFIA Eu TRF assay: enhancement of biotin labeled PD-L1 binding to CHO cells expressing PD-1
Protocol: as §1

[13] = biological target: T2, human PD-1 expressed on cells; experiment: flow cytometry: enhancement of PDL1-biotin/Streptavidin-APC binding to CHO cells expressing PD-1
Protocol: A second cell-based assay where PD-1 was expressed on CHO cells was also utilized to evaluate PD-1/PD-L1 interactions. […] 50 μl of 2×10⁶ cells/ml were added to each well (100,000 cells/well). Cells were centrifuged and re-suspended in 50 μl of the indicated antibody concentrations and incubated for 60 minutes on ice. […] Cells were washed and resuspended in 180 μl stain buffer +20μ PFA and data was acquired on a BD LSR II.

cynomologous PD-1 [14] = biological target: T3, cynomologous PD-1; experiment: SPR, ProteOn XPR36

T2 sequence (Q15116 25-288): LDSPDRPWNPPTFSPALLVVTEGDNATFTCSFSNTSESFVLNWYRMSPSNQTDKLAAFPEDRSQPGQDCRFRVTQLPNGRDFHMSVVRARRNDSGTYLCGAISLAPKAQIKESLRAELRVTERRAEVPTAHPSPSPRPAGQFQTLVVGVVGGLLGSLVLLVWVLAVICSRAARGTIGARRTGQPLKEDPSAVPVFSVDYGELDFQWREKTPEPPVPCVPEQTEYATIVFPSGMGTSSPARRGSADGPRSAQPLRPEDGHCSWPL
T3 sequence (B0LAJ3 entry or part of it limits assumed): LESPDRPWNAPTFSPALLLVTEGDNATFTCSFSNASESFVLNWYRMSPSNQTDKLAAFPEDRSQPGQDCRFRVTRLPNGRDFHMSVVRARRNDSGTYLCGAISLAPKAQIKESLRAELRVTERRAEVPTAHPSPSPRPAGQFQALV
T1 sequence (Q15116 25-167 limits assumed): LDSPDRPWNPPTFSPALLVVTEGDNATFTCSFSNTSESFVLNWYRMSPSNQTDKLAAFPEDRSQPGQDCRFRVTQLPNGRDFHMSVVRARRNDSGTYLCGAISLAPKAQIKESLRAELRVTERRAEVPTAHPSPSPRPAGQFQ

| Binder | Kd (recombinant human PD-1 [1]) [nM] | koff (recombinant human PD-1 [1]) [s⁻¹] | kon (recombinant human PD-1 [1]) [M⁻¹ s⁻¹] | IC50 Values (pM), Geomean, inhibition of IL-21 [6] [pM] | Emax Values (%), Average, inhibition of IFNγ [7] [%] | IC50 Values (pM), Geomean, inhibition of IFNγ [7] [pM] | Emax Values (%), Average, inhibition of IL-17A [8] [%] | IC50 Values (pM), Geomean, inhibition of IL-17A [8] [pM] | Kd (cynomologous PD-1 [9]) [nM] | koff (cynomologous PD-1 [9]) [s⁻¹] | kon (cynomologous PD-1 [9]) [M⁻¹ s⁻¹] | also measured |
| --- | --- | --- | --- | --- | --- | --- | --- | --- | --- | --- | --- | --- |
| B1 | 2.65 | 0.000463 | 175000 | 6 | 46.8 | 17.7 | 62.9 | 32.5 | 41 | 0.00633 | 154000 | IC50 Values (nM), Geomean, inhibition of IFNγ [2]: 0.03 nM; EC50 [3]: 2.4 nM; EC50 (read off the curve) [4]: ~10 nM; IC50 Values (nM), Geomean, inhibition of IFNγ [5]: 0.03 nM |
| B2 | 2.58 | 0.000582 | 226000 | 12 | 66.5 | 18 | 70 | 14.4 | 38.9 | 0.00721 | 185000 | Emax Values (%), inhibition of NFAT activity [10]: 42.6%; IC50 Values (nM), inhibition of NFAT activity [10]: 0.13 nM; Kd (recombinant human PD-1 [11]): 2.58 nM; koff (recombinant human PD-1 [11]): 0.000582 s⁻¹; kon (recombinant human PD-1 [11]): 226000 M⁻¹ s⁻¹ |
| B3 | – | – | – | – | – | – | – | – | – | – | – | EC50 (read off the curve) [12]: ~2 nM; EC50 (read off the curve) [13]: ~6 nM |
| B4 | – | – | – | 50 | 40.1 | 31.5 | 67.5 | 176 | – | – | – | Kd (cynomologous PD-1 [14]): 25 nM |
